Experimental data reported in patent publication US20250152742A1, “COMPOSITIONS AND METHODS FOR NEUROLOGICAL DISEASES” (Trames Bio, Inc., priority 2022, published 2025).
Substitutions are numbered along the chain they refer to. Names may count otherwise.

System: engineered chimeric receptor SEQ ID NO: 33 and its mutants (human α7-nAChR ligand binding domain / human GlyRα1 ion pore domain) in Lenti-X 293T cells
Experiment: YFP fluorescence quenching anion reporter plate reader assay (percent quench, EC50)
Assay type: cell-based
Settings: for YFP fluorescence quenching using CNL001 (percent quench): receptor named in row; for YFP fluorescence quenching using Varenicline, 3 nM var: ligand Varenicline 3 nM; for YFP fluorescence quenching using Varenicline, 30 nM var: ligand Varenicline 30 nM; for YFP fluorescence quenching using Varenicline, 300 nM var: ligand Varenicline 300 nM; for YFP fluorescence quenching using Varenicline, 500 nM var: ligand Varenicline 500 nM; for YFP fluorescence quenching using Varenicline, 1 uM var: ligand Varenicline 1 uM
In short: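 Lenti-X 293T cells co-expressing an anion-quenchable YFP were transiently transfected with receptor DNA, then ligand was added in NaI-substituted buffer (pH 7.2) after 30 min at 37 °C. Fluorescence was read about 2 min; percent quench = mean of last 10 s over 15 s pre-ligand baseline.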

[1] = 1 nM CNL001, first column so headed
[2] = 1 nM CNL001, second column so headed
[3] = 1 nM brd (TC-5619/Bradanicline)
[4] = 3 nM brd (TC-5619/Bradanicline)
[5] = 10 nM CNL001, first column so headed
[6] = 10 nM CNL001, second column so headed
[7] = 10 nM brd (TC-5619/Bradanicline)
[8] = 30 nM brd (TC-5619/Bradanicline)
[9] = 50 nM CNL001, first column so headed
[10] = 50 nM CNL001, second column so headed
[11] = 100 nM CNL001, first column so headed
[12] = 100 nM CNL001, second column so headed
[13] = 300 nM brd (TC-5619/Bradanicline)
[14] = 1 uM CNL001, first column so headed
[15] = 1 uM CNL001, second column so headed

B1: CODA1039: engineered receptor: Y115E, Y210W in SEQ ID NO: 33 (protein)
chain: MRCSPGGVWLALAASLLHVSLQGEFQRKLYKELVKNYNPLERPVANDSQPLTVYFSLSLLQIMDVDEKNQVLTTNIWLQMSWTDHYLQWNVSEYPGVKTVRFPDGQIWKPDILLENSADERFDATFHTNVLVNSSGHCQYLPPGIFKSSCPMDLKNFPMDVQTCKLKFGSWSYGGWSLDLQMQEADISGYIPNGEWDLVGIPGKRSERFWECCKEPYPDVTFTVTMRRRMGYYLIQMYIPSLLIVILSWISFWINMDAAPARVGLGITTVLTMTTQSSGSRASLPKVSYVKAIDIWMAVCLLFVFSALLEYAAVNFVSRQHKELLRFRRKRRHHKSPMLNLFQEDEAGEGRFNFSAYGMGPACLQAKDGISVKGANNSNTTNPPPAPSKSPEEMRKLFIQRAKKIDKISRIGFPMAFLIFNMFYWIIYKIVRREDVHNQ
modifications: synthetic sequence of chimeric LGIC
[1]
  YFP fluorescence quenching using CNL001 (percent quench): −1.12%
[2]
  YFP fluorescence quenching using CNL001 (percent quench): −3.941%
[3]
  YFP fluorescence quenching using TC-5619/Bradanicline (percent quench): −5.55%
[4]
  YFP fluorescence quenching using TC-5619/Bradanicline (percent quench): 6.78%
[5]
  YFP fluorescence quenching using CNL001 (percent quench): 6.275%
[6]
  YFP fluorescence quenching using CNL001 (percent quench): 11.943%
[7]
  YFP fluorescence quenching using TC-5619/Bradanicline (percent quench): −2.7%
30 nM TC-6683
  YFP fluorescence quenching using TC-6683 (percent quench): −1.608%
[8]
  YFP fluorescence quenching using TC-5619/Bradanicline (percent quench): 34.43%
[9]
  YFP fluorescence quenching using CNL001 (percent quench): 12.949%
[10]
  YFP fluorescence quenching using CNL001 (percent quench): 18.635%
50 nM abt (ABT-126)
  YFP fluorescence quenching using ABT-126 (percent quench): −17.32%
[11]
  YFP fluorescence quenching using CNL001 (percent quench): 17.576%
[12]
  YFP fluorescence quenching using CNL001 (percent quench): 18.319%
100 nM CNL002
  YFP fluorescence quenching (percent quench): 21.85%
100 nM abt (ABT-126)
  YFP fluorescence quenching using ABT-126 (percent quench): −13.93%
100 nM azd0328
  YFP fluorescence quenching using AZD-0328 (percent quench): −10.45%
300 nM TC-6683
  YFP fluorescence quenching using TC-6683 (percent quench): −3.491%
300 nM abt (ABT-126)
  YFP fluorescence quenching using ABT-126 (percent quench): 9.9%
300 nM azd0328
  YFP fluorescence quenching using AZD-0328 (percent quench): −13%
[13]
  YFP fluorescence quenching using TC-5619/Bradanicline (percent quench): 70.05%
500 nM abt (ABT-126)
  YFP fluorescence quenching using ABT-126 (percent quench): 36.97%
[14]
  YFP fluorescence quenching using CNL001 (percent quench): 19.329%
[15]
  YFP fluorescence quenching using CNL001 (percent quench): 20.672%
1 uM CNL002
  YFP fluorescence quenching (percent quench): 47.37%
1 uM abt (ABT-126)
  YFP fluorescence quenching using ABT-126 (percent quench): 48.37%
3 uM TC-6683
  YFP fluorescence quenching using TC-6683 (percent quench): −6.153%
3 uM abt (ABT-126)
  YFP fluorescence quenching using ABT-126 (percent quench): 50.5%
10 uM abt (ABT-126)
  YFP fluorescence quenching using ABT-126 (percent quench): 58.13%
10 uM ach (acetylcholine)
  YFP fluorescence quenching (percent quench): −2.97%
30 uM CNL002
  YFP fluorescence quenching (percent quench): 59.97%
30 uM TC-6683
  YFP fluorescence quenching using TC-6683 (percent quench): −9.263%
30 uM abt (ABT-126)
  YFP fluorescence quenching using ABT-126 (percent quench): 64.1%
30 uM azd0328
  YFP fluorescence quenching using AZD-0328 (percent quench): 30.76%
50 uM abt (ABT-126)
  YFP fluorescence quenching using ABT-126 (percent quench): 66.67%
50 uM ach (acetylcholine)
  YFP fluorescence quenching (percent quench): −3.94%
100 uM TC-6683
  YFP fluorescence quenching using TC-6683 (percent quench): −9.19%
100 uM abt (ABT-126)
  YFP fluorescence quenching using ABT-126 (percent quench): 68.63%
100 uM ach (acetylcholine)
  YFP fluorescence quenching (percent quench): 0.35%
300 uM ach (acetylcholine)
  YFP fluorescence quenching (percent quench): −4.13%
500 uM ach (acetylcholine)
  YFP fluorescence quenching (percent quench): −5.18%
1 mM ach (acetylcholine)
  YFP fluorescence quenching (percent quench): 1.21%
3 mM ach (acetylcholine)
  YFP fluorescence quenching (percent quench): 26.69%
Ligand Facinicline 30 nM
  YFP fluorescence quenching using Facinicline, 30 nM fac: −13.46
Ligand Facinicline 300 nM
  YFP fluorescence quenching using Facinicline, 300 nM fac: 5.43
Ligand Facinicline 30 uM
  YFP fluorescence quenching using Facinicline, 30 uM fac: 49.06
Ligand TC-6987 1 uM
  YFP fluorescence quenching using TC-6987, 1 uM tc6987: 7.26
Ligand TC-6987 10 uM
  YFP fluorescence quenching using TC-6987, 10 uM tc6987: 11
Ligand TC-6987 500 uM
  YFP fluorescence quenching using TC-6987, 500 uM tc6987: 7.97
First column
  YFP fluorescence quenching using Varenicline, 3 nM var: −10.926
  YFP fluorescence quenching using Varenicline, 30 nM var: −5.661
  YFP fluorescence quenching using Varenicline, 300 nM var: −4.555
  YFP fluorescence quenching using Varenicline, 500 nM var: 9.172
  YFP fluorescence quenching using Varenicline, 1 uM var: 7.139
Second column
  YFP fluorescence quenching using Varenicline, 3 nM var: −7.395
  YFP fluorescence quenching using Varenicline, 30 nM var: −1.244
  YFP fluorescence quenching using Varenicline, 300 nM var: 1.081
  YFP fluorescence quenching using Varenicline, 500 nM var: 12.561
  YFP fluorescence quenching using Varenicline, 1 uM var: 12.664

B2: CODA1045: engineered receptor: R101W, Y210V in SEQ ID NO: 33 (protein)
chain: B1 chain with R101W, E115Y, W210V
modifications: synthetic sequence of chimeric LGIC
[1]
  YFP fluorescence quenching using CNL001 (percent quench): 0.804%
[2]
  YFP fluorescence quenching using CNL001 (percent quench): 11.275%
[3]
  YFP fluorescence quenching using TC-5619/Bradanicline (percent quench): −1.431%
[4]
  YFP fluorescence quenching using TC-5619/Bradanicline (percent quench): −14.993%
[5]
  YFP fluorescence quenching using CNL001 (percent quench): 15.843%
[6]
  YFP fluorescence quenching using CNL001 (percent quench): 16.619%
[7]
  YFP fluorescence quenching using TC-5619/Bradanicline (percent quench): −5.52%
30 nM TC-6683
  YFP fluorescence quenching using TC-6683 (percent quench): 1.735%
[8]
  YFP fluorescence quenching using TC-5619/Bradanicline (percent quench): 15.49%
[9]
  YFP fluorescence quenching using CNL001 (percent quench): 15.205%
[10]
  YFP fluorescence quenching using CNL001 (percent quench): 18.771%
50 nM abt (ABT-126)
  YFP fluorescence quenching using ABT-126 (percent quench): −24.16%
[11]
  YFP fluorescence quenching using CNL001 (percent quench): 9.332%
[12]
  YFP fluorescence quenching using CNL001 (percent quench): 18.218%
100 nM abt (ABT-126)
  YFP fluorescence quenching using ABT-126 (percent quench): −24.7%
100 nM brd (TC-5619/Bradanicline)
  YFP fluorescence quenching using TC-5619/Bradanicline (percent quench): 72.105%
300 nM TC-6683
  YFP fluorescence quenching using TC-6683 (percent quench): 0.642%
300 nM abt (ABT-126)
  YFP fluorescence quenching using ABT-126 (percent quench): −16.09%
[13]
  YFP fluorescence quenching using TC-5619/Bradanicline (percent quench): 71.411%
[14]
  YFP fluorescence quenching using CNL001 (percent quench): 35.294%
[15]
  YFP fluorescence quenching using CNL001 (percent quench): 36.542%
1 uM abt (ABT-126)
  YFP fluorescence quenching using ABT-126 (percent quench): −11.61%
3 uM TC-6683
  YFP fluorescence quenching using TC-6683 (percent quench): 2.403%
10 uM ach (acetylcholine)
  YFP fluorescence quenching (percent quench): −2.52%
30 uM TC-6683
  YFP fluorescence quenching using TC-6683 (percent quench): 6.006%
100 uM TC-6683
  YFP fluorescence quenching using TC-6683 (percent quench): −4.277%
100 uM ach (acetylcholine)
  YFP fluorescence quenching (percent quench): −11.98%
300 uM ach (acetylcholine)
  YFP fluorescence quenching (percent quench): −16.71%
500 uM ach (acetylcholine)
  YFP fluorescence quenching (percent quench): −12.87%
1 mM ach (acetylcholine)
  YFP fluorescence quenching (percent quench): −14.41%
3 mM ach (acetylcholine)
  YFP fluorescence quenching (percent quench): −7.4%
10 mM ach (acetylcholine)
  YFP fluorescence quenching (percent quench): −1.5%
First column
  YFP fluorescence quenching using Varenicline, 3 nM var: 6.745
  YFP fluorescence quenching using Varenicline, 30 nM var: 14.1
  YFP fluorescence quenching using Varenicline, 300 nM var: 16.83
  YFP fluorescence quenching using Varenicline, 500 nM var: 21.586
  YFP fluorescence quenching using Varenicline, 1 uM var: 31.591
Second column
  YFP fluorescence quenching using Varenicline, 3 nM var: 8.397
  YFP fluorescence quenching using Varenicline, 30 nM var: 19.095
  YFP fluorescence quenching using Varenicline, 300 nM var: 21.507
  YFP fluorescence quenching using Varenicline, 500 nM var: 23.131
  YFP fluorescence quenching using Varenicline, 1 uM var: 26.479
